In patent US20110091992A1 (AstraZeneca / MedImmune, published 2011):
Values belong to the molecule of their own block, whether it stands above or below them.

What was measured:
[1] = molecular target: Human CD16 (V158 allotype), soluble (human) (UniProt P08637); assay: SPR (BIAcore 3000), Fc amine-coupled to CM5 chip, soluble CD16 V158 at 1 nM-1.6 µM, steady-state isotherm fit, 25 C
Human FcγRIIA [2] = molecular target: T1, Human FcγRIIA (human, UniProt P12318 34-217, limits assumed); assay: SPR (BIAcore 3000), immobilised Fc/Mut2, human FcγRIIA injected at 8 µM
T1 construct: The construct is not described
T1 sequence (looked up): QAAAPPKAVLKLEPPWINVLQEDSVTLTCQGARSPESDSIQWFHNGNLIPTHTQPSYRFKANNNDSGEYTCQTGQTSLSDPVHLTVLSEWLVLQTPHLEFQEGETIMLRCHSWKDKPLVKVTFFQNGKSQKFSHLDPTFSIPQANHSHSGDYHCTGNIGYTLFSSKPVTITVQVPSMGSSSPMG

Human FcγRIIB = molecular target: T2, Human FcγRIIB (human, UniProt P31994 43-217, limits assumed); assay: SPR (BIAcore 3000), immobilised Fc/Mut3, human FcγRIIB injected at 8 µM
T2 construct: The construct is not described
T2 sequence (looked up): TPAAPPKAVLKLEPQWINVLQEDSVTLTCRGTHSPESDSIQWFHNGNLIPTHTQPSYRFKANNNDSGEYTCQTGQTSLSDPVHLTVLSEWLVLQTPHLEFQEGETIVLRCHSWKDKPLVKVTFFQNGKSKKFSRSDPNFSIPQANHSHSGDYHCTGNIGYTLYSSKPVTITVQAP

Human FcγRIIA [3] = molecular target: T1, Human FcγRIIA; assay: SPR (BIAcore 3000), immobilised Fc/Mut3, human FcγRIIA injected at 8 µM

Sequence of Human CD16 (V158 allotype), soluble (human) (P08637 17-208 F176V): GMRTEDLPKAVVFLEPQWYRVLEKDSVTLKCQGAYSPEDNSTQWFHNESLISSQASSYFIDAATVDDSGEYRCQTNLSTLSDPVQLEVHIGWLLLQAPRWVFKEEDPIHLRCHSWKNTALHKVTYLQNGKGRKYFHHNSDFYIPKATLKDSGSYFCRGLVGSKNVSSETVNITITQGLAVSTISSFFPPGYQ

Kd [1]: 157 nM
Molecule: Unmutated human Fc (from UniProt P0DOX5 225-449)

binding result (Human FcγRIIA [2]): no binding (tested: 8 µM)
B1: Fc/Mut2 (other)
chain: THTCPPCPAPELLGGPSVFLFPPKPKDTLMISRTPEVTCVVVDVSHEDPEVKFNWYVDGVEVHNAKTKPRENSTYRVVSVLTVLHQDWLNGKEYKCKVSNKALPAPIEKTISKAKGQPREPQVYTLPPSREEMTKNQVSLTCLVKGFYPSDIAVEWESNGQPENNYKTTPPVLDSDGSFFLYSKLTVDKSRWQQGNVFSCSVMHEALHNHYTQKSLSLSPGK
notes: It was made in the same expression construct as the unmutated human Fc and expressed in HEK 293 cells

binding result (Human FcγRIIB): no binding (tested: 8 µM) | binding result (Human FcγRIIA [3]): no binding (tested: 8 µM)
B2: Fc/Mut3 (other)
chain: THTCPPCPAPELLGGPSVFLFPPKPKDTLMISRTPEVTCVVVDVSHEDPEVKFNWYVDGVEVHNAKTKPRENSTVVSVLTVLHQDWLNGKEYKCKVSNKALPAPIEKTISKAKGQPREPQVYTLPPSREEMTKNQVSLTCLVKGFYPSDIAVEWESNGQPENNYKTTPPVLDSDGSFFLYSKLTVDKSRWQQGNVFSCSVMHEALHNHYTQKSLSLSPGK
notes: as for B1
